Laboratory results as given in patent publication US20260217835A1 (published 2026).

B1: Sample No. 87, IgG1 antibody with T366W/L368A/Y407V (heavy chain SEQ ID NO: 26, light chain SEQ ID NO: 61) (antibody)
heavy: QVQLQESGPGLVRPSQTLSLTCTVSGYSITSDHAWSWVRQPPGRGLEWIGYISYSGITTYNPSLKSRVTMLRDTSKNQFSLRLSSVTAADTAVYYCARSLARTTAMDYWGQGSLVTVSSASTKGPSVFPLAPSSKSTSGGTAALGCLVKDYFPEPVTVSWNSGALTSGVHTFPAVLQSSGLYSLSSVVTVPSSSLGTQTYICNVNHKPSNTKVDKRVEPKSCDKTHTCPPCPAPELLGGPSVFLFPPKPKDTLMISRTPEVTCVVVDVSHEDPEVKFNWYVDGVEVHNAKTKPREEQYNSTYRVVSVLTVLHQDWLNGKEYKCKVSNKALPAPIEKTISKAKGQPREPQVYTLPPSREEMTKNQVSLWCAVKGFYPSDIAVEWESNGQPENNYKTTPPVLDSDGSFFLVSKLTVDKSRWQQGNVFSCSVMHEALHNHYTQKSLSLSP
light: not shown
B2: Sample No. 121, IgG1 antibody with T350V/L351Y/T366L/K392L/T394W/F405A/Y407V (heavy chain SEQ ID NO: 60, light chain SEQ ID NO: 61) (antibody)
heavy: QVQLQESGPGLVRPSQTLSLTCTVSGYSITSDHAWSWVRQPPGRGLEWIGYISYSGITTYNPSLKSRVTMLRDTSKNQFSLRLSSVTAADTAVYYCARSLARTTAMDYWGQGSLVTVSSASTKGPSVFPLAPSSKSTSGGTAALGCLVKDYFPEPVTVSWNSGALTSGVHTFPAVLQSSGLYSLSSVVTVPSSSLGTQTYICNVNHKPSNTKVDKRVEPKSCDKTHTCPPCPAPELLGGPSVFLFPPKPKDTLMISRTPEVTCVVVDVSHEDPEVKFNWYVDGVEVHNAKTKPREEQYNSTYRVVSVLTVLHQDWLNGKEYKCKVSNKALPAPIEKTISKAKGQPREPQVYVYPPSREEMTKNQVSLLCLVKGFYPSDIAVEWESNGQPENNYLTWPPVLDSDGSFALVSKLTVDKSRWQQGNVFSCSVMHEALHNHYTQKSLSLSP
light: not shown
B3: Sample No. 116, IgG1 antibody with E345R/Q347R/K360D/T366V/D399M/Y407A/K409V (heavy chain SEQ ID NO: 55, light chain SEQ ID NO: 61) (antibody)
heavy: QVQLQESGPGLVRPSQTLSLTCTVSGYSITSDHAWSWVRQPPGRGLEWIGYISYSGITTYNPSLKSRVTMLRDTSKNQFSLRLSSVTAADTAVYYCARSLARTTAMDYWGQGSLVTVSSASTKGPSVFPLAPSSKSTSGGTAALGCLVKDYFPEPVTVSWNSGALTSGVHTFPAVLQSSGLYSLSSVVTVPSSSLGTQTYICNVNHKPSNTKVDKRVEPKSCDKTHTCPPCPAPELLGGPSVFLFPPKPKDTLMISRTPEVTCVVVDVSHEDPEVKFNWYVDGVEVHNAKTKPREEQYNSTYRVVSVLTVLHQDWLNGKEYKCKVSNKALPAPIEKTISKAKGQPRRPRVYTLPPSREEMTDNQVSLVCLVKGFYPSDIAVEWESNGQPENNYKTTPPVLMSDGSFFLASVLTVDKSRWQQGNVFSCSVMHEALHNHYTQKSLSLSP
light: not shown
B4: Sample No. 109, IgG1 antibody with E356K/K392D/D399K/K439E (heavy chain SEQ ID NO: 48, light chain SEQ ID NO: 61) (antibody)
heavy: QVQLQESGPGLVRPSQTLSLTCTVSGYSITSDHAWSWVRQPPGRGLEWIGYISYSGITTYNPSLKSRVTMLRDTSKNQFSLRLSSVTAADTAVYYCARSLARTTAMDYWGQGSLVTVSSASTKGPSVFPLAPSSKSTSGGTAALGCLVKDYFPEPVTVSWNSGALTSGVHTFPAVLQSSGLYSLSSVVTVPSSSLGTQTYICNVNHKPSNTKVDKRVEPKSCDKTHTCPPCPAPELLGGPSVFLFPPKPKDTLMISRTPEVTCVVVDVSHEDPEVKFNWYVDGVEVHNAKTKPREEQYNSTYRVVSVLTVLHQDWLNGKEYKCKVSNKALPAPIEKTISKAKGQPREPQVYTLPPSRKEMTKNQVSLTCLVKGFYPSDIAVEWESNGQPENNYDTTPPVLKSDGSFFLYSKLTVDKSRWQQGNVFSCSVMHEALHNHYTQESLSLSP
light: not shown
B5: Sample No. 92, IgG1 antibody with Q347R/K360E/D399V/F405T/K409W (heavy chain SEQ ID NO: 31, light chain SEQ ID NO: 61) (antibody)
heavy: QVQLQESGPGLVRPSQTLSLTCTVSGYSITSDHAWSWVRQPPGRGLEWIGYISYSGITTYNPSLKSRVTMLRDTSKNQFSLRLSSVTAADTAVYYCARSLARTTAMDYWGQGSLVTVSSASTKGPSVFPLAPSSKSTSGGTAALGCLVKDYFPEPVTVSWNSGALTSGVHTFPAVLQSSGLYSLSSVVTVPSSSLGTQTYICNVNHKPSNTKVDKRVEPKSCDKTHTCPPCPAPELLGGPSVFLFPPKPKDTLMISRTPEVTCVVVDVSHEDPEVKFNWYVDGVEVHNAKTKPREEQYNSTYRVVSVLTVLHQDWLNGKEYKCKVSNKALPAPIEKTISKAKGQPREPRVYTLPPSREEMTENQVSLTCLVKGFYPSDIAVEWESNGQPENNYKTTPPVLVSDGSFTLYSWLTVDKSRWQQGNVFSCSVMHEALHNHYTQKSLSLSP
light: not shown
B6: Sample No. 111, IgG1 antibody with K392D/D399K/K409D (heavy chain SEQ ID NO: 50, light chain SEQ ID NO: 61) (antibody)
heavy: QVQLQESGPGLVRPSQTLSLTCTVSGYSITSDHAWSWVRQPPGRGLEWIGYISYSGITTYNPSLKSRVTMLRDTSKNQFSLRLSSVTAADTAVYYCARSLARTTAMDYWGQGSLVTVSSASTKGPSVFPLAPSSKSTSGGTAALGCLVKDYFPEPVTVSWNSGALTSGVHTFPAVLQSSGLYSLSSVVTVPSSSLGTQTYICNVNHKPSNTKVDKRVEPKSCDKTHTCPPCPAPELLGGPSVFLFPPKPKDTLMISRTPEVTCVVVDVSHEDPEVKFNWYVDGVEVHNAKTKPREEQYNSTYRVVSVLTVLHQDWLNGKEYKCKVSNKALPAPIEKTISKAKGQPREPQVYTLPPSREEMTKNQVSLTCLVKGFYPSDIAVEWESNGQPENNYDTTPPVLKSDGSFFLYSDLTVDKSRWQQGNVFSCSVMHEALHNHYTQKSLSLSP
light: not shown
B7: Sample No. 117, IgG1 antibody with E356K/K392D/D399K/K409D (heavy chain SEQ ID NO: 56, light chain SEQ ID NO: 61) (antibody)
heavy: QVQLQESGPGLVRPSQTLSLTCTVSGYSITSDHAWSWVRQPPGRGLEWIGYISYSGITTYNPSLKSRVTMLRDTSKNQFSLRLSSVTAADTAVYYCARSLARTTAMDYWGQGSLVTVSSASTKGPSVFPLAPSSKSTSGGTAALGCLVKDYFPEPVTVSWNSGALTSGVHTFPAVLQSSGLYSLSSVVTVPSSSLGTQTYICNVNHKPSNTKVDKRVEPKSCDKTHTCPPCPAPELLGGPSVFLFPPKPKDTLMISRTPEVTCVVVDVSHEDPEVKFNWYVDGVEVHNAKTKPREEQYNSTYRVVSVLTVLHQDWLNGKEYKCKVSNKALPAPIEKTISKAKGQPREPQVYTLPPSRKEMTKNQVSLTCLVKGFYPSDIAVEWESNGQPENNYDTTPPVLKSDGSFFLYSDLTVDKSRWQQGNVFSCSVMHEALHNHYTQKSLSLSP
light: not shown
B8: Sample No. 97, IgG1 antibody with E356K/D399K/K409E/K439E (heavy chain SEQ ID NO: 36, light chain SEQ ID NO: 61) (antibody)
heavy: QVQLQESGPGLVRPSQTLSLTCTVSGYSITSDHAWSWVRQPPGRGLEWIGYISYSGITTYNPSLKSRVTMLRDTSKNQFSLRLSSVTAADTAVYYCARSLARTTAMDYWGQGSLVTVSSASTKGPSVFPLAPSSKSTSGGTAALGCLVKDYFPEPVTVSWNSGALTSGVHTFPAVLQSSGLYSLSSVVTVPSSSLGTQTYICNVNHKPSNTKVDKRVEPKSCDKTHTCPPCPAPELLGGPSVFLFPPKPKDTLMISRTPEVTCVVVDVSHEDPEVKFNWYVDGVEVHNAKTKPREEQYNSTYRVVSVLTVLHQDWLNGKEYKCKVSNKALPAPIEKTISKAKGQPREPQVYTLPPSRKEMTKNQVSLTCLVKGFYPSDIAVEWESNGQPENNYKTTPPVLKSDGSFFLYSELTVDKSRWQQGNVFSCSVMHEALHNHYTQESLSLSP
light: not shown
B9: Sample No. 100, IgG1 antibody with Q347E/S354Y/T366Y/Y407T (heavy chain SEQ ID NO: 39, light chain SEQ ID NO: 61) (antibody)
heavy: QVQLQESGPGLVRPSQTLSLTCTVSGYSITSDHAWSWVRQPPGRGLEWIGYISYSGITTYNPSLKSRVTMLRDTSKNQFSLRLSSVTAADTAVYYCARSLARTTAMDYWGQGSLVTVSSASTKGPSVFPLAPSSKSTSGGTAALGCLVKDYFPEPVTVSWNSGALTSGVHTFPAVLQSSGLYSLSSVVTVPSSSLGTQTYICNVNHKPSNTKVDKRVEPKSCDKTHTCPPCPAPELLGGPSVFLFPPKPKDTLMISRTPEVTCVVVDVSHEDPEVKFNWYVDGVEVHNAKTKPREEQYNSTYRVVSVLTVLHQDWLNGKEYKCKVSNKALPAPIEKTISKAKGQPREPEVYTLPPYREEMTKNQVSLYCLVKGFYPSDIAVEWESNGQPENNYKTTPPVLDSDGSFFLTSKLTVDKSRWQQGNVFSCSVMHEALHNHYTQKSLSLSP
light: not shown
B10: Sample No. 102, IgG1 antibody with K392L/T394W/F405A/Y407V (heavy chain SEQ ID NO: 41, light chain SEQ ID NO: 61) (antibody)
heavy: QVQLQESGPGLVRPSQTLSLTCTVSGYSITSDHAWSWVRQPPGRGLEWIGYISYSGITTYNPSLKSRVTMLRDTSKNQFSLRLSSVTAADTAVYYCARSLARTTAMDYWGQGSLVTVSSASTKGPSVFPLAPSSKSTSGGTAALGCLVKDYFPEPVTVSWNSGALTSGVHTFPAVLQSSGLYSLSSVVTVPSSSLGTQTYICNVNHKPSNTKVDKRVEPKSCDKTHTCPPCPAPELLGGPSVFLFPPKPKDTLMISRTPEVTCVVVDVSHEDPEVKFNWYVDGVEVHNAKTKPREEQYNSTYRVVSVLTVLHQDWLNGKEYKCKVSNKALPAPIEKTISKAKGQPREPQVYTLPPSREEMTKNQVSLTCLVKGFYPSDIAVEWESNGQPENNYLTWPPVLDSDGSFALVSKLTVDKSRWQQGNVFSCSVMHEALHNHYTQKSLSLSP
light: not shown
B11: Sample No. 112, IgG1 antibody with Y349C/E357C/K392D/D399K (heavy chain SEQ ID NO: 51, light chain SEQ ID NO: 61) (antibody)
heavy: QVQLQESGPGLVRPSQTLSLTCTVSGYSITSDHAWSWVRQPPGRGLEWIGYISYSGITTYNPSLKSRVTMLRDTSKNQFSLRLSSVTAADTAVYYCARSLARTTAMDYWGQGSLVTVSSASTKGPSVFPLAPSSKSTSGGTAALGCLVKDYFPEPVTVSWNSGALTSGVHTFPAVLQSSGLYSLSSVVTVPSSSLGTQTYICNVNHKPSNTKVDKRVEPKSCDKTHTCPPCPAPELLGGPSVFLFPPKPKDTLMISRTPEVTCVVVDVSHEDPEVKFNWYVDGVEVHNAKTKPREEQYNSTYRVVSVLTVLHQDWLNGKEYKCKVSNKALPAPIEKTISKAKGQPREPQVCTLPPSRECMTKNQVSLTCLVKGFYPSDIAVEWESNGQPENNYDTTPPVLKSDGSFFLYSKLTVDKSRWQQGNVFSCSVMHEALHNHYTQKSLSLSP
light: not shown
B12: Sample No. 119, IgG1 antibody with E345R/K360E/D399M/Y407A/K409V (heavy chain SEQ ID NO: 58, light chain SEQ ID NO: 61) (antibody)
heavy: QVQLQESGPGLVRPSQTLSLTCTVSGYSITSDHAWSWVRQPPGRGLEWIGYISYSGITTYNPSLKSRVTMLRDTSKNQFSLRLSSVTAADTAVYYCARSLARTTAMDYWGQGSLVTVSSASTKGPSVFPLAPSSKSTSGGTAALGCLVKDYFPEPVTVSWNSGALTSGVHTFPAVLQSSGLYSLSSVVTVPSSSLGTQTYICNVNHKPSNTKVDKRVEPKSCDKTHTCPPCPAPELLGGPSVFLFPPKPKDTLMISRTPEVTCVVVDVSHEDPEVKFNWYVDGVEVHNAKTKPREEQYNSTYRVVSVLTVLHQDWLNGKEYKCKVSNKALPAPIEKTISKAKGQPRRPQVYTLPPSREEMTENQVSLTCLVKGFYPSDIAVEWESNGQPENNYKTTPPVLMSDGSFFLASVLTVDKSRWQQGNVFSCSVMHEALHNHYTQKSLSLSP
light: not shown

Molecular target: T1, human neonatal Fc receptor (FcRn) (human, UniProt P55899 24-290)
T1 construct: also called human FcRn
Assay: SPR (Biacore T200), antibody captured on Protein L, human FcRn as analyte, pH 6.0, 25 C, steady-state model

Binder	Kd
B1	1730 nM
B2	1730 nM
B3	1780 nM
B4	1690 nM
B5	1860 nM
B6	1530 nM
B7	1590 nM
B8	1740 nM
B9	1760 nM
B10	1690 nM
B11	1570 nM
B12	1610 nM
